This is an account of results in PMC9376091 (Scientific Reports, 2022).

The data set concerns the molecule itself. The experiment in a line: AUC.

Values joined by “and” are separate entries in the source; they are usually repeats but may differ in a detail not shown here. Equal entries are not always repeated.

B1: homoserine acetyl transferase (HSAT, MetX, Rv3341) from M. tuberculosis, recombinant (His)6-MetX (enzyme)
chain: MTISDVPTQTLPAEGEIGLIDVGSLQLESGAVIDDVCIAVQRWGKLSPARDNVVVVLHALTGDSHITGPAGPGHPTPGWWDGVAGPGAPIDTTRWCAVATNVLGGCRGSTGPSSLARDGKPWGSRFPLISIRDQVQADVAALAALGITEVAAVVGGSMGGARALEWVVGYPDRVRAGLLLAVGARATADQIGTQTTQIAAIKADPDWQSGDYHETGRAPDAGLRLARRFAHLTYRGEIELDTRFANHNQGNEDPTAGGRYAVQSYLEHQGDKLLSRFDAGSYVILTEALNSHDVGRGRGGVSAALRACPVPVVVGGITSDRLYPLRLQQELADLLPGCAGLRVVESVYGHDGFLVETEAVGELIRQTLGLADREGACRR
Usually stoichiometry N stands for the number of molecules, sites or subunits per partner or assembly. With B1, the “stoichiometry N” value is 2 and 4.
